Reference: the DeepSol protein solubility set

Test: soluble on expression in E. coli; label from the status in PepcDB or PDB records
In the case of “MTLTQEKRSYMEKLSDENGIISALAFDQRGALKRLMAQYQTQEPTIAQMEELKVLVAEELTPYASSMLLDPEYGLPAAKHLDKNAGLLLAYEKTGYDTTSTKRLPDCLVEWSAKRLKKQGADAVKFLLYYDVDGDEEVNQQKQAYIERIGSECKAEDIPFFLEILAYDETITDAASVEYAKVKPHKVLDAMKVFSDERFGIDVLKVEVPVNMKYVEGFGDGPIVHTQDQAANFFKQQDQATPLPYIYLSAGVSAKLFQDTLVFAKESGANFNGVLCGRATWAGSVKDYIEKGEAAARQWLRTEGFKNIDELNKVLKATATSWKER”, the “soluble on expression in E. coli” value is reported as “soluble”.
For “MTLTVSPTAARTPAEEKARFEGNKLAKRLARETTRAIADYNMIEAGDKVMVCLSGGKDSYALLDILLSLQKRAPFAFEIIAVNLDQKQPGFPPEILPGYLRALGVPFHIETQDTYSIVTRVIPEGKTMCSLCSRLRRGILYRVASELGATKIALGHHRDDILGTFFLNLFYGGKAKGMPPKLVSDDGRHTVIRPLAYVPESDLIAYAQFKQFPIIPCNLCGSQENLKRKEVGRMIQEWDRKHPGRSWNVFNALSRVVPSHLMDRDLFDFVGLKPTGVADAGGDTAFDQIDPEPDTAGPGCASDAPAGQADGMAEQRVVFR”, the “soluble on expression in E. coli” value was “not soluble”.
With “MTLYIGMNNTSGKAITDIDHLRQSVRDILLTPQGSRIARREYGSLLSALIDQPQNPALRLQVMSAVYVALSRWEPRLTLDSITINSHFDGSMVVELAGRRNNGVPVSLSVSTGAENGSD” the “soluble on expression in E. coli” value was “not soluble”.
With “MTLYVNLAELLGSRIENGFYRPGDRLPSVRALSVEHGVSLSTVQQAYRVLEDSGLAAPKPKSGYFVSVSRHAPALPAVGRPAQRPVDISQWDQVLDLIRVAPREAVTQLGRGMPDVTSPTLKPLMRALGQLSRHQDMPGLYYDNIYGVLRLREQVARLMLDSGCNLTANDVIITNGCHEALSASVRAICSPGDIVAVDSPSFFGAMQTLKGVGMKALEIPTDPLTGISLEALELALEQWPIKVIQLTPNCNNPLGYVMPEARKRALLTLAQRFDVAIIEDDVYGDLAYNYPRPRTIKSFDEDGRVLLCSSFSKTLAPGLRIGWVAPGRYLERVLHMKYIGTGSTAPQPQLAIADFLEGGHYEPHVRRMRTQYQRSRDQMIDWVMRYFPEGTRASRPQGSFMLWVELAEDFDTLRLNRALLDKGVQIAVGSIFSASGKYRNCMRLNYAAKSSREIESAVRIVGETIAQLIAQSD” the “soluble on expression in E. coli” value was “not soluble”.
With “MTMQLIGKKSFPRKANRGAKTRNPSIYWNYRQFICSSSSGYPIPMNFSDEFDFDEDRVYEMLCSDDENTTDYSDEIIAIIDANMRSLWIFQL” the “soluble on expression in E. coli” value was “not soluble”.
With “MTNAALDDKTIVRDYFNSTGFDRWRRIYGDGQVNFVQKDIRVGHQQTVDSVVAWLVADGNLPGLLVCDAGCGVGSLSIPLAQAGALVYGSDISEKMVGEAQQKAQEVLAYGNQPTFMTQDLAQLGGKYDTVICLDVLIHYPTEEASAMISHLASLADRRLILSFAPKTLGLTVLKKIGGLFPGPSKTTRAYQHKEADIRKILGDNGFSIARTGMTSTRFYYSRILEAVRSLEHHHHHH” the “soluble on expression in E. coli” value was “not soluble”.
With “MTNKEIKKLCRSFGADLVGVASVERFVNAPKGYHPTDVMPTAKSVISLGMVLPKDILEQDIRTYTDIRNEAVKKMDKVAADVAAELKGLKYKAVSIVSLSGKFVDGHFRSRVSLKHAAELAGLGVIARNYLLTNDKYGNLLWFTAVVTSLELEPDPLATYQVCNNCNLCVDLCPSGALTDENNFSQKGCRKVCYITVKGVLELRCWQCRNVCPYKHGIND” the “soluble on expression in E. coli” value was “not soluble”.
For “MTNLELSGSQSYLNDESTANLSSLAGKFLVQFWGVRGLIPTPSSNTSRYGGNTACVEMQVAGKRLIFDGGTGLRILGKAWQHLQQPLEAHLFFTNSQSNRIQGFPFFAPAFIAGNCFHIYGGAASNGASIKQCLCDQMLQPHFPYPLQVMQSELQFYPLTPDSEVKLDDVTIRTALINQTQRSIGYRVTWQEYSVAYVTDLNMSAEQGEREQVLQIIQDVDLLIANATYTPPTSHDHESVDLLWQAAVEMAQKAGVRKLIISHHHPDDHDDFLDQVEKEVQSTFSDALLACEGLALPVFLEHHHHHH”, the “soluble on expression in E. coli” value was “soluble”.
For “MTNLFVRSGISFVDRSEVLTYIGNEMLAKGVVHDTWPQALIAREAEFPTGIMLEQHAIAIPHCEAIHAKSSAIYLLRPTNKVHFQQADDDNDVAVSLVIALIVENPQQQLKLLRCLFGKLQQPDIVETLITLPETQLKEYFTKYVLDSDE”, the “soluble on expression in E. coli” value was “not soluble”.
With “MTNMRQVLKTDRLVLEPQSMARFDQWFAMERQRDEAGHRDLTEDQAWLRLCARQGMWDAYACGFYYLLDPVSGEMRGEAGFQFRRRGFGPGFDNHPEAAWAVASAHQGRGLAAEAMQALLAHHDRSSGRQRVVALIARSNLPSLRLAERLGFRGYSDVAFDGAAHLLLERAG” the “soluble on expression in E. coli” value was “soluble”.
With “MTNPLNSTAANRSNQPSSDGISDGQITNEEAESLINKKNCSGHKLKEVTDSDTFSDNGKDDSDTKKRFHYHQDQRRMSLTSIVAVESPSSSNAPSRKTIDLGHGSDLIYIQRFLPFQQSWTFFDYLDKHIPWTRPTIRVFGRSCLQPRDTCYVASSGLTALVYSGYRPTSYSWDDFPPLKEILDAIYKVLPGSRFNSLLLNRYKGASDYVAWHADDEKIYGPTPEIASVSFGCERDFVLKKKKDEESSQGKTGDSGPAKKRLKRSSREDQQSLTLKHGSLLVMRGYTQRDWIHSVPKRAKAEGTRINLTFRLVL” the “soluble on expression in E. coli” value was “not soluble”.
In the case of “MTNRLILFDFDETYYKHRTNQADIPYLKEMKSLLQNITAKNNVITAILTGSTIESVLQKMSKVNMSYKPQHIFSDLSSKMFTWNNCEYIESDEYKNEVLIEPFLLEDILDILKHVSSKHKVEFIPQRIFRENETLYNFYFYSSGDTHLDKTILEDLSQYSKTRDYTMTFNRCNPLAGDPENAYDINFTPKNAGKLYATKILMNKYGVPKELIIGFGDSGNDEAFLSYLDHAMIMSNSQDEEMKSKFKNTKYPYYKGIYTHVREFIEYENV”, the “soluble on expression in E. coli” value is reported as “not soluble”.
In the case of “MTNRQWETLREYDEIKYEFYEGIAKVTINRPEVRNAFTPKTVAEMIDAFSRARDDQNVSVIVLTGEGDLAFCSGGDQKKRGHGGYVGEDQIPRLNVLDLQRLIRIIPKPVIAMVKGYAVGGGNVLNVVCDLTIAADNAIFGQTGPKVGSFDAGYGSGYLARIVGHKKAREIWYLCRQYNAQEALDMGLVNTVVPLEKVEDETVQWCKEIMKHSPTALRFLKAAMNADTDGLAGLQQMAGDATLLYYTTDEAKEGRDAFKEKRDPDFDQFPKFP”, the “soluble on expression in E. coli” value is reported as “soluble”.
In the case of “MTNSVLRVLEHLRAHDHDAIVLAPGDADTPHEYAGFPVIPLASLHWPGYQDVRVSTSPQWTMERYLSEFEPDVVHLAGPFMIGYKGAMAAASLGIPIVAIYQTDIPSYAGRYGLGKLEFYGWYRVRQIHSLAVATYAPSTFSRDQLVSHGVPRVDIWGRGVDKVRFHPSKRSQQLHDEWAPNGEVVIGYMGRLAAEKRVADMTNLADIPNTKLVIVGDGPARAEVEKQLPHAVFTGGLGGEDLPRALASMDVFCSTGELETFCQAVQEAKACGLPVISPRKGGPIDLIDSSRTGWLYEPGDMTDFRSRVIDLVGDDYKRHAMGIAARASIENRTWENLCAELVEHYKEAIRLAGRSTRIRAVLLEHHHHHH”, the “soluble on expression in E. coli” value is reported as “not soluble”.
In the case of “MTNTGETKVIESHGTIKKIDSLSTMPYCGVETDENAVVEEKITLESGKSWSPKHYELLHERIERLIDEKQQFFSLEFFPPRFVNGVPNFLERVERLSEGGSVFVDMTWHMGSDPANVDKVTSSSSIAASMLDYCGVDTMLHMTCVQYNKADTLKHLEQAKAMGLRSILALRGDLPPGTELEDTHQFRALDMIRWIREEYGNYFSIGCAGYPLGHPQAPSYKADLMYLKAKCDAGANFVITQLFFEAETFEKFVRDCREIGITQPIIPGIMPIMGYESIKRIAKLSQLEIPQHILDDLEPIKHDDDAVQKYGTERCIEMCRRLLDNGTAPSIHLYTMNREGSIREILKSLGLWKLEGDRVFPWKNRSQHPIRCLESVRPIYWSFRPRSYITRTRDWDQFPNGRWGNSSSPAFGDVSSYYLSNLTTVRNADDRLAMFGANIESFEDVKRVFINYITQAPNADGVKVTVLPWTEAETGVQPETSLISEQLVWCNENGILTVNSQPSVNGAPSTDPLVGWGKPGGYCYQKAYLECFMTAELSDKLIQIIEREFPVRVNYHAINKDSTFDKTNSEETTPIAVTWGVFPGSEIAQPTVVDPLSFRAWRDEAYQMWMAQWGDFYPKESKSYGVIKAVHDEFRLVTLVDNDFQKPSVLFDVLQKALDELKK”, the “soluble on expression in E. coli” value is reported as “not soluble”.
With “MTPAQLTGTTDSHLQSTMVGQKAFLMHPDVANDLLNMIEAAKKAGFKMEIASGFRDFSRQRAIWNGKYEGELPILDSNSQPLNKAALSDEEKLKAILRWSALPGGSRHHWGCDFDVYARNLLPPDTKLQLEPWEYLEGHQLAFYCWLKDHIDEFGFFFPYLQDLGGVAIEPWHISHKAIGQQCAAQLNAEMLKDELVRQNQQHNIAGLESILNNLDSILSTYIRNITPPPEAL” the “soluble on expression in E. coli” value was “not soluble”.
With “MTPIHVVGIGLDGLPGLAAAVQQIIDSATLLVGSDRHLQLIPQGDTPRLSLGNFNASLKAIQTHLDTTANPQVVILTSGDPLFYGLGRWLLEVFAPDQLTFHPHLSAVQLAFSRLKLPWQDAVIYSAHGRDLAGLVPLLQRGVEKIAIYTDGEANIAAISRLYQALHIPVTYRAWVCQALGSAEEAILPWDLAQPVTALPPVHPLNLVVLLRQPQRLPPREQPIVGLGDDQFFTFADRPSLMTKREVRVLVLAELALTSTVEIVWDIGAGTGSVAVEIARLAPQATIYAIEKTAIGFQLIERNRRAFGLANLIPLQGTAPQCLRDLPPPDRVFIGGSGAQLLANLDYCWSHLNAGGRLVLAIATLEHQGQVLHWCQTHQINPQVLQVQLSRSVPLGQGHRLHPLNPVTLMTLTQGLEHHHHHH” the “soluble on expression in E. coli” value was “not soluble”.
With “MTPLKRYQKDIAEHGFQRDEAQHQAVVALDKLYHDIVEFQSAPIPQLSKWQKLMGKKVEMPQPPKGLYFWGGVGRGKTYLMDAFFDALPTDRKMRVHFHRFMYRVHDELKRLGEVENPLSKVADLFKQEADIVCFDEFFVSDITDAMILATLLQEMFKRQMVLVATSNIEPQNLYRNGLQRARFLPAIDMILARCHVLNVDSGVDYRLRTLEQAEIYHYPLDEQASINLNTYYQQLTAERKSVAHKIDINHRQISVIEASDGVLHASFEQLCQTARSQNDYIELSRIYHTVLLADVRQMNRKIDDAARRFIALVDEFYERNVKLIISAEVEMDALYSEGQLEFEFKRCVSRLTEMQSHEYLAREHLALEHHHHHH” the “soluble on expression in E. coli” value was “soluble”.
For “MTPRIIVTDMDGTLLNSEHEIPARFWPLLDEMHEQGIVFAPASGRQLYTLLDQFAQAGKDLSVIAENGTVVYHEGEIISVTTIDPEVAHRVIRTMAHSDLDWGVVVCRVDGAFIARGDVEFLTETVRYYAKLDVVDDLHSVVNDQVIKLAIYSFPDAETVAAPALAESVGDHTLAISGAHWIDIMSPHANKGVALQQLADNLGVPIEHTAAFGDYLNDYELLHTAGTAYAMSNAHPDIKDIADHVVGSNDEESVLTTIHSLLTAAK”, the “soluble on expression in E. coli” value was “not soluble”.
With “MTQAVMLQGTASDVGKSVLAAGLCRIFYQDGLRTAPFKSQNMALNSGITPDGKEMGRAQIFQAEAAGITPDVRMNPVLLKPTSDRQAQVVLMGKVATNMDAVSYHDYKPRLREQILAVYNSLAQEYDVIVLEGAGSPAEINLRDRDIVNMGMAEMAQCPVILVADIDRGGVFAAIYGTLALLHKQERDRVKGVIINKFRGDVALLYSGIEQIESLTGVPVLGVMPWLDVDLEDEDGVALQNDKYRGNAPRDITIAIVQLPHISNFTDFNALAAQPDVRIRYIRRPEALTDVDLVILPGSKNTLSDLAWLRESGMADAVLQTHRQGVPVMGICGGYQMLGDTIVDEVESGLGTQPGLGLLNTITRFAQDKTTTQVNATMSGELPGWLAAAAGLPVRGYEIHMGETVLQEGCCTAMTLQKNGCSVADGAVTADGLAFGTYLHGLFDSDAFTRAVVNGLRARKGLAPWETTFCYADHKARQFDLLAEAMRQHIDIDKIYTIMQQHQEPV” the “soluble on expression in E. coli” value was “not soluble”.
